Source: patent US20160206741

Tested on: T1, GRRRGK (SEQ ID NO: 1) oligopeptide crosslink within P(MAA-co-NVP) microgels
T1 sequence: GRRRGK

trypsin was tested, and the “relative turbidity of microgel solutions over time” value was “reduced relative turbidity as a function of time and trypsin concentration” and the “trypsin activity on the BAEE substrate (absorbance at 253 nm) after 90 min with 0-6 mg/ml microgels” value was “trypsin activity on the BAEE substrate is reduced as microgel concentration increases”.
